Kd and EC50 data for one molecule are collected here from article PMC3904923, “Pivoting between Calmodulin Lobes Triggered by Calcium in the Kv7.2/Calmodulin Complex” (PLoS ONE, 2014).

Details in all cases: both partners purified
For assay [1], the target named is T1, CaM N-lobe (residues 1–78) (human, UniProt P0DP23 2-79).
T1 construct: human calmodulin N-lobe, residues 1-78; cDNA from the group of Daniel L. Minor Jr; also called N-domain; CaM 1–78; source: produced as described previously [28], purified
Nature of the assay: other fluorescence titration; competition: 12.5 nM D-CaM mixed with helix A (46.4 nM) or helix B (20.1 nM), isolated lobe added incrementally; no Ca2+; one site Hill fit, Kd derived assuming 1:1 binding.

For assay [2], the target named is T2, CaM C-lobe (residues 79–148) (human, UniProt P0DP23 80-149).
T2 construct: human calmodulin C-lobe, residues 79-148; cDNA from the group of Daniel L. Minor Jr; also called C-domain; CaM 79–148; source: produced as described previously [28], purified
The assay is described as above.

For assay [3], the target named is T1, CaM N-lobe (residues 1–78). Nature of the assay: other fluorescence titration; competition: 12.5 nM D-CaM mixed with helix A (65.6 nM) or helix B (42.6 nM), isolated lobe added incrementally; with Ca2+; one site Hill fit, Kd derived assuming 1:1 binding.
In assay [4] the target is T2, CaM C-lobe (residues 79–148). Described as above.
The target in assay [5] is T3, dansylated calmodulin (rat, UniProt P0DP30 1-149, dansyl group covalently bound to CaM (position not given)).
T3 construct: calmodulin, rat brain, NM_017326; also called D-CaM; dansyl-CaM
Nature of the assay: other fluorescence titration; 12.5 nM D-CaM, ligand added incrementally, enhancement of dansyl emission; 25 mM Tris-HCl, 120 mM KCl, 5 mM NaCl, 2 mM MgCl2, 10 mM EGTA, pH 7.4; no free Ca2+; apparent affinity (EC50 of a Hill fit).

In assay [6] the target is T3, dansylated calmodulin. As to the kind of experiment: other fluorescence titration; 12.5 nM D-CaM, ligand added incrementally, enhancement of dansyl emission; D-CaM binding buffer with 3.9 µM free Ca2+ (9.63 mM Ca2+, 2 mM Mg2+, 10 mM EGTA, pH 7.4); apparent affinity (EC50 of a Hill fit).

B1: Kv7.2 helix A (hA residues G310–T359) (domain or fragment, human, UniProt O43526 310-359, looked up)
chain: GILGSGFALKVQEQHRQKHFEKRRNPAAGLIQSAWRFYATNLSRTDLHST
notes: helix A of human Kv7.2 (KCNQ2) Y15065, residues G310-T359; also called segment A; source: E. coli BL21-DE3, purified (GSH sepharose)
With B1, the Kd – broadly, the free concentration of one partner at which half of the binding sites on the other are occupied at equilibrium, for simple one-to-one binding – in assay [1] is 530 nM; in assay [2] it was 169 nM; in assay [3] it was 267 nM; in assay [4], 17 nM. Also, the values for the EC50 in assay [5] and in assay [6] were 46.4 nM and 65.6 nM, respectively.
